# Source: paper PMC6078384 (Journal of structural biology, 2013)
# Biological target: the molecule itself
# Assay: SEC
protein,measurement,value
"ΔN71–AtTHIC (N-terminally truncated Arabidopsis thaliana THIC, HMP-P synthase, lacking the first 71 amino acids) (enzyme) not shown",stoichiometry N,2
